Experimental data: patent US11015206B2, “Compositions and methods comprising sequences having hydroxyphenylpyruvate dioxygenase (HPPD) activity” (PIONEER HI-BRED INTERNATIONAL, INC., priority 2014, dated 2021)

What was measured:
Format in all cases: biochemical, Z. mays
[1] = system: 4-hydroxyphenylpyruvate dioxygenase (HPPD); test: HPPD activity coupled assay with HGD; substrate saturation kinetic parameters (kcat, KM); conditions: Table 6; for kcat: single substitutions in SEQ ID NO:2
Method in brief: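 Coupled continuous assay: His-tagged HPPD (5 to 240 nM, E. coli-expressed, Ni-NTA-purified) with 50 nM P. aeruginosa HGD in 25 mM Hepes pH 7, 2 mM ascorbate, 10 μM FeSO4; maleylacetoacetate followed at 320 nm. KM and Vmax from Lineweaver-Burke fits over 3.33–100 μM HPP.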

[2] = system: 4-hydroxyphenylpyruvate dioxygenase (HPPD); test: ON rate ratio: HPPD reaction rate with vs without inhibitor in the 70 to 90 second interval; conditions: Table 5; tembotrione
Method in brief: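 Indicator of inhibitor on-rate: reaction velocity in the 70 to 90 second window with 4 μM inhibitor divided by that without. Reactions contained 100 μM HPP and 60 or 120 nM HPPD; slower binding gives a larger ratio.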

[3] = system: 4-hydroxyphenylpyruvate dioxygenase (HPPD); test: OFF rate ratio: release of inhibitor from pre-formed enzyme-inhibitor complex; conditions: Table 5; tembotrione
Method in brief: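 Inhibitor release from pre-formed complex (enzyme 7.2 μM, inhibitor 8 μM, 1 h RT) tracked as accelerating HPPD activity at 320 nm over 12 min, coupled via 50 nM HGD with 100 μM HPP at pH 7. OFF rate ratio: steady-state velocity relative to uninhibited initial velocity.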

[4] = system: 4-hydroxyphenylpyruvate dioxygenase (HPPD); test: Insensitivity parameter (ON × OFF) and trait fitness (ON × OFF × kcat/KM or × kcat); conditions: for ON × OFF × kcat, Value / ON × OFF × kcat, Fold vs wt / ON × OFF, fold vs wt / ON × OFF (parameters with tembotrione): Table 5, tembotrione; for ON × OFF × kcat, Fold vs wt / ON × OFF, fold vs wt: fold vs maize wild type HPPD; for ON × OFF (parameters with tembotrione): insensitivity parameter
Method in brief: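 Trait fitness combines catalysis and insensitivity as kcat/KM × ON rate ratio × OFF rate ratio. The insensitivity parameter is the product of ON and OFF rate ratios, used in place of KD because the ON rate ratio is inverse.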

[5] = system: 4-hydroxyphenylpyruvate dioxygenase (HPPD); test: Estimate of kcat from initial rate at saturating hydroxyphenylpyruvate without inhibitor (ON rate ratio assay); conditions: Table 5; single substitutions in Round 7 variant 9070 (SEQ ID NO:2); estimate from initial rate at saturating hydroxyphenylpyruvate without inhibitor
Method in brief: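 kcat was estimated from the initial reaction rate with known enzyme level (60 or 120 nM HPPD). Hydroxyphenylpyruvate was at a saturating 100 μM, with no inhibitor present.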

[6] = DKN (diketonitrile form of isoxaflutole)
[7] = DKN (isoxaflutole diketonitrile)

Row | ON ratio (parameters with tembotrione) [2] | OFF ratio (parameters with tembotrione) [3] | Insensitivity parameter, ON × OFF [4, 6] | Insensitivity parameter, ON × OFF ([4]; Mesotrione, Table 6) | Insensitivity parameter, ON × OFF ([4]; Sulcotrione) | ON × OFF, fold vs wt [4] | ON × OFF (parameters with tembotrione) [4] | Insensitivity parameter, ON × OFF ([4]; Tembotrione) | Insensitivity parameter, ON × OFF ([4]; Topramezon) | Molecule | Km [1] | kcat [1] | ON × OFF × kcat/km fold vs Round 7, variant 9070 [4, 7] | ON × OFF × kcat/km fold vs Round 7, variant 9070 ([4]; Sulco (sulcotrione)) | ON × OFF × kcat, Value [4] | ON × OFF × kcat, Fold vs wt [4] | ON × OFF × kcat/km fold vs Round 7, variant 9070 ([4]; Topra (topramezone)) | ON × OFF × kcat/km fold vs Round 7, variant 9070 ([4]; meso (mesotrione)) | ON × OFF × kcat/km fold vs Round 7, variant 9070 ([4]; tembo (tembotrione)) | kcat [5]
1 | 0.73 | 0.15 | 0.18 | 0.39 | 0.47 | 21.2 | 0.11 | 0.15 | 0.22 | 434R: single substitution Q434R in SEQ ID NO:2 (protein, Zea mays variant form created by artificial means.) MGPTPTATAAGAAVAAASAAEQAAFRLVGHRNFVRFNPRSDRFQTLAFHHVELWCADAASAAGRFSFALGVPLAARSDLSTGNSAHASLLLRSGSLSLLFTAPYAHGADAATAALPSFSAAAARRFAADHGLAVRAVALRVADAEDAFRASVAAGARPAFGPVDLGRGFRLAEVELYGDVVLRYVSYPDGAAGEPFLPGFEGVASPGAADYGLSRFDHIVGNVPELAPAAAYMAGFTGFHEFAEFTTEDVGTTESGLNSMALANNSENVLLPLNEPVHGTKRRSQIQTFLDHHGGPGVQHIALASDDVLRTLREMRARSAMGGFEFLPPPLSDYYDGVRRCAGDVLTEAQINECQELGVMVDRDDQGVLLQIFTKPVGDRPTFFLEIIQRIGCMEKDEKGQEYQKGGCGGFGKGNFGQLFKSIEDYEKSLEAKRAAAAATAQGS | 2.74 µM | 1.35 s⁻¹ | 1.1 | 1.1 | 5.63 | 5.26 | 1.1 | 1.1 | 1.1 | 0.868 s⁻¹
2 | 0.75 | 0.20 | 0.29 | 0.46 | 0.53 | 28.5 | 0.15 | 0.20 | 0.29 | 206S: single substitution P206S in SEQ ID NO:2 (protein, Zea mays variant form created by artificial means.) MGPTPTATAAGAAVAAASAAEQAAFRLVGHRNFVRFNPRSDRFQTLAFHHVELWCADAASAAGRFSFALGVPLAARSDLSTGNSAHASLLLRSGSLSLLFTAPYAHGADAATAALPSFSAAAARRFAADHGLAVRAVALRVADAEDAFRASVAAGARPAFGPVDLGRGFRLAEVELYGDVVLRYVSYPDGAAGEPFLPGFEGVASSGAADYGLSRFDHIVGNVPELAPAAAYMAGFTGFHEFAEFTTEDVGTTESGLNSMALANNSENVLLPLNEPVHGTKRRSQIQTFLDHHGGPGVQHIALASDDVLRTLREMRARSAMGGFEFLPPPLSDYYDGVRRCAGDVLTEAQINECQELGVMVDRDDQGVLLQIFTKPVGDRPTFFLEIIQRIGCMEKDEKGQEYQKGGCGGFGKGNFGQLFKSIEDYEKSLEAKQAAAAATAQGS | 3.36 µM | 1.13 s⁻¹ | 1.1 | 0.8 | 5.15 | 4.82 | 1.0 | 0.9 | 1.1 | 0.592 s⁻¹
3 | 0.79 | 0.28 | 0.30 | 0.44 | 0.60 | 42.5 | 0.22 | 0.23 | 0.29 | 182M: single substitution L182M in SEQ ID NO:2 (protein, Zea mays variant form created by artificial means.) MGPTPTATAAGAAVAAASAAEQAAFRLVGHRNFVRFNPRSDRFQTLAFHHVELWCADAASAAGRFSFALGVPLAARSDLSTGNSAHASLLLRSGSLSLLFTAPYAHGADAATAALPSFSAAAARRFAADHGLAVRAVALRVADAEDAFRASVAAGARPAFGPVDLGRGFRLAEVELYGDVVMRYVSYPDGAAGEPFLPGFEGVASPGAADYGLSRFDHIVGNVPELAPAAAYMAGFTGFHEFAEFTTEDVGTTESGLNSMALANNSENVLLPLNEPVHGTKRRSQIQTFLDHHGGPGVQHIALASDDVLRTLREMRARSAMGGFEFLPPPLSDYYDGVRRCAGDVLTEAQINECQELGVMVDRDDQGVLLQIFTKPVGDRPTFFLEIIQRIGCMEKDEKGQEYQKGGCGGFGKGNFGQLFKSIEDYEKSLEAKQAAAAATAQGS | 2.88 µM | 0.935 s⁻¹ | 0.9 | 0.9 | 5.63 | 5.26 | 0.9 | 0.8 | 1.0 | 0.433 s⁻¹

The next lines start with the molecule.

Row | Molecule | ON ratio (parameters with tembotrione) [2] | OFF ratio (parameters with tembotrione) [3] | Insensitivity parameter, ON × OFF [4, 6] | Insensitivity parameter, ON × OFF ([4]; Mesotrione, Table 6) | Insensitivity parameter, ON × OFF ([4]; Sulcotrione) | ON × OFF, fold vs wt [4] | ON × OFF (parameters with tembotrione) [4] | Insensitivity parameter, ON × OFF ([4]; Tembotrione) | Insensitivity parameter, ON × OFF ([4]; Topramezon) | Km [1] | kcat [1] | ON × OFF × kcat/km fold vs Round 7, variant 9070 [4, 7] | ON × OFF × kcat/km fold vs Round 7, variant 9070 ([4]; Sulco (sulcotrione)) | ON × OFF × kcat, Value [4] | ON × OFF × kcat, Fold vs wt [4] | ON × OFF × kcat/km fold vs Round 7, variant 9070 ([4]; Topra (topramezone)) | ON × OFF × kcat/km fold vs Round 7, variant 9070 ([4]; meso (mesotrione)) | ON × OFF × kcat/km fold vs Round 7, variant 9070 ([4]; tembo (tembotrione)) | kcat [5]
4 | 191G: single substitution A191G in SEQ ID NO:2 (protein, Zea mays variant form created by artificial means.) MGPTPTATAAGAAVAAASAAEQAAFRLVGHRNFVRFNPRSDRFQTLAFHHVELWCADAASAAGRFSFALGVPLAARSDLSTGNSAHASLLLRSGSLSLLFTAPYAHGADAATAALPSFSAAAARRFAADHGLAVRAVALRVADAEDAFRASVAAGARPAFGPVDLGRGFRLAEVELYGDVVLRYVSYPDGGAGEPFLPGFEGVASPGAADYGLSRFDHIVGNVPELAPAAAYMAGFTGFHEFAEFTTEDVGTTESGLNSMALANNSENVLLPLNEPVHGTKRRSQIQTFLDHHGGPGVQHIALASDDVLRTLREMRARSAMGGFEFLPPPLSDYYDGVRRCAGDVLTEAQINECQELGVMVDRDDQGVLLQIFTKPVGDRPTFFLEIIQRIGCMEKDEKGQEYQKGGCGGFGKGNFGQLFKSIEDYEKSLEAKQAAAAATAQGS | 0.77 | 0.13 | 0.25 | 0.40 | 0.51 | 20.1 | 0.10 | 0.19 | 0.24 | 2.46 µM | 1.2 s⁻¹ | 1.1 | 1.1 | 4.36 | 4.08 | 1.1 | 1.1 | 1.0 | 0.71 s⁻¹
5 | 434H: single substitution Q434H in SEQ ID NO:2 (protein, Zea mays variant form created by artificial means.) MGPTPTATAAGAAVAAASAAEQAAFRLVGHRNFVRFNPRSDRFQTLAFHHVELWCADAASAAGRFSFALGVPLAARSDLSTGNSAHASLLLRSGSLSLLFTAPYAHGADAATAALPSFSAAAARRFAADHGLAVRAVALRVADAEDAFRASVAAGARPAFGPVDLGRGFRLAEVELYGDVVLRYVSYPDGAAGEPFLPGFEGVASPGAADYGLSRFDHIVGNVPELAPAAAYMAGFTGFHEFAEFTTEDVGTTESGLNSMALANNSENVLLPLNEPVHGTKRRSQIQTFLDHHGGPGVQHIALASDDVLRTLREMRARSAMGGFEFLPPPLSDYYDGVRRCAGDVLTEAQINECQELGVMVDRDDQGVLLQIFTKPVGDRPTFFLEIIQRIGCMEKDEKGQEYQKGGCGGFGKGNFGQLFKSIEDYEKSLEAKHAAAAATAQGS | 0.78 | 0.13 | 0.21 | 0.46 | 0.55 | 19.5 | 0.10 | 0.15 | 0.22 | 2.77 µM | 1.41 s⁻¹ | 1.4 | 1.3 | 5.16 | 4.82 | 1.1 | 1.3 | 1.1 | 0.865 s⁻¹
